In series [1] the target is T1, 6xHis-Crz1 (CaCrz1) (Candida albicans, UniProt Q5A4H5 1-731).
T1 sequence: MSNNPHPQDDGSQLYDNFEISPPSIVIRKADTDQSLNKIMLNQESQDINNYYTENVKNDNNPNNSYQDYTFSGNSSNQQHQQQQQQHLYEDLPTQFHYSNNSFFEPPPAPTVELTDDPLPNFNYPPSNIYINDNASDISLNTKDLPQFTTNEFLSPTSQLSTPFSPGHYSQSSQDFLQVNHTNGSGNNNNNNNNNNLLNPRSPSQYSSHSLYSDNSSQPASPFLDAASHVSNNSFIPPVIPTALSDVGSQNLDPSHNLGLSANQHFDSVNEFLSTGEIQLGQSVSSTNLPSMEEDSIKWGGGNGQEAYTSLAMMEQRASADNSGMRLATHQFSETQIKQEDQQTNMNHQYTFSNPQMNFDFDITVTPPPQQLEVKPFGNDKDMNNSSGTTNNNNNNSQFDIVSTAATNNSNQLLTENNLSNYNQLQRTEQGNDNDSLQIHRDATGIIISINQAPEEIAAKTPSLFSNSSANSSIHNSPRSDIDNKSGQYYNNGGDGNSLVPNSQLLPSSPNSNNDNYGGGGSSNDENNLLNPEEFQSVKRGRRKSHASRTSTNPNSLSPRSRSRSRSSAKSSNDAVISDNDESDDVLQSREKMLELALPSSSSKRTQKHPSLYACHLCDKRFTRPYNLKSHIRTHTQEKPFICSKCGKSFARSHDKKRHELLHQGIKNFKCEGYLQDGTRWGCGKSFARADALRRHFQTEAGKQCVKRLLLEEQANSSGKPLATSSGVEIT
The series can be described thus: EMSA; 1 ug protein; DIG Gel Shift Kit (Roche), per manufacturer; buffer, salt, pH and temperature not stated. The note with it: protein: recombinant; tags: His6; label: DIG at 3' end; blunt. (Mobility shift assays separate free from complexed probe on a gel.)

Series [2] deals with T1, 6xHis-Crz1 (CaCrz1). The series can be described thus: competition; unlabelled probe abolished binding to DIG-labelled N1; 1 ug protein; DIG Gel Shift Kit (Roche), per manufacturer; buffer, salt, pH and temperature not stated. The note with it: protein: recombinant; tags: His6; blunt.

B1: EMSA_PHR1_F/R (PHR1 promoter CDRE probe) (dsDNA)
DNA 1: CCTTTCTCATAGGAATTCATCGACGCCTCATTCATACTAATATAATAGGT
DNA 2: ACCTATTATATTAGTATGAATGAGGCGTCGATGAATTCCTATGAGAAAGG
With B1, the binding result with 6xHis-Crz1 (CaCrz1) [1] was “binds”.

B2: unlabelled EMSA_PHR1_F/R (specific competitor) (dsDNA)
DNA 1: CCTTTCTCATAGGAATTCATCGACGCCTCATTCATACTAATATAATAGGT
DNA 2: ACCTATTATATTAGTATGAATGAGGCGTCGATGAATTCCTATGAGAAAGG
As for B2, in the series with 6xHis-Crz1 (CaCrz1) [2], the binding result is recorded as “binds”.

(Values after paper PMC10506259, “A glycosylated Phr1 protein is induced by calcium stress and its expression is positively controlled by the calcium/calcineurin signaling transcription factor Crz1 in Candida albicans”.)
